Measured values reported in patent CN108059680A (BEIJING DONGFANG BIOTECH CO LTD, dated 2018).

Biological target: T1, CD20 (UniProt P11836 1-297, limits assumed)
T1 construct: whole, on cells; also called 细胞表面CD20; Raji细胞(过表达CD20细胞系)
T1 sequence (looked up): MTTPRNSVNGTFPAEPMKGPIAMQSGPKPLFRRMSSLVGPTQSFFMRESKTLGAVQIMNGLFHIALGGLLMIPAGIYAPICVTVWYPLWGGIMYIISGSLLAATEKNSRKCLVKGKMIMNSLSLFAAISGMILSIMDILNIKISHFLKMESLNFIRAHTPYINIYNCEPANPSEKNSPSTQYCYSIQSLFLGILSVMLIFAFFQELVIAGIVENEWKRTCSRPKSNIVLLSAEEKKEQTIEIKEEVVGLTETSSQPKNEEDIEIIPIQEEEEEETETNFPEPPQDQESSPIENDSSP
Assay: flow cytometry on Raji cells (CD20-overexpressing), Alexa488 anti-human IgG-Fc detection

binding result: binds
B1: JY052 (bispecific antibody, human IgG4 S228P, kappa)
light: DIVMTQTPLSLPVTPGEPASISCRSSKSLLHSNGITYLYWYLQKPGQSPQLLIYQMSNLVSGVPDRFSGSGSGTDFTLKISRVEAEDVGVYYCAQNLELPYTFGGGTKVEIKRTVAAPSVFIFPPSDEQLKSGTASVVCLLNNFYPREAKVQWKVDNALQSGNSQESVTEQDSKDSTYSLSSTLTLSKADYEKHKVYACEVTHQGLSSPVTKSFNRGEC
heavy: QVQLVQSGAEVKKPGSSVKVSCKASGYAFSYSWINWVRQAPGQGLEWMGRIFPGDGDTDYNGKFKGRVTITADKSTSTAYMELSSLRSEDTAVYYCARNVFDGYWLVYWGQGTLVTVSSASTKGPSVFPLAPCSRSTSESTAALGCLVKDYFPEPVTVSWNSGALTSGVHTFPAVLQSSGLYSLSSVVTVPSSSLGTKTYTCNVDHKPSNTKVDKRVESKYGPPCPPCPAPEFLGGPSVFLFPPKPKDTLMISRTPEVTCVVVDVSQEDPEVQFNWYVDGVEVHNAKTKPREEQFNSTYRVVSVLTVLHQDWLNGKEYKCKVSNKGLPSSIEKTISKAKGQPREPQVYVLPPSQEEMTKNQVSLLCLVKGFYPSDIAVEWESNGQPENNYLTWPPVLDSDGSFFLYSRLTVDKSRWQEGNVFSCSVMHEALHNHYTQKSLSLSLG
chain: not shown
notes: Three-chain bispecific: anti-CD20 light-heavy pair plus anti-CD3 single-chain Fab-Fc, joined by hinge disulfides and a knob-into-hole structure in CH3; also called 抗CD20×CD3的双特异抗体; 针对CD20和CD3的双特异性抗体
